How the values were obtained:
c-Src SH2 = test: SH2 binding enrichment of the phosphorylated peptide, bacterial display (enrichment ratio); higher = better substrate or ligand; peptides without Tyr show the background
SHP2-C SH2 = test: as above
Grb2 SH2 = Grb2 SH2 (UniProt P62993); test: as above
c-Abl (mouse) = test: phosphorylation enrichment, bacterial display (enrichment ratio); higher = better substrate or ligand; peptides without Tyr show the background
MERTK = MERTK (UniProt Q12866); test: as above
c-Src = test: as above
FGFR1 = FGFR1 (UniProt P11362); test: as above
Fyn = Fyn (UniProt P06241); test: as above
Fes = Fes (UniProt P07332); test: as above
Jak2 = Jak2 (UniProt O60674); test: as above
Fer (mouse) = test: as above
EPHB2 = EPHB2 (UniProt P29323); test: as above
EPHB1 = EPHB1 (UniProt P54762); test: as above
Hck = Hck (UniProt P08631); test: as above
AncSZ = test: as above
FGFR3 = FGFR3 (UniProt P22607); test: as above
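For SH2 binding enrichment of the phosphorylated peptide, bacterial display in this document: peptide library displayed on the E. coli surface as eCPX fusions, selected cells deep-sequenced, score is each peptide's frequency after selection divided by its frequency in the input.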
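For phosphorylation enrichment, bacterial display in this document: 11-residue human phosphosite peptides and single-mutation variants displayed on the E. coli surface, counted by deep sequencing, each peptide's frequency after selection divided by its frequency in the unselected input library; frequency after pTyr selection over input frequency; kinase dosed for 20-30% of maximal phosphorylation in three min.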

Chain of Grb2 SH2 (P62993 whole entry, looked up): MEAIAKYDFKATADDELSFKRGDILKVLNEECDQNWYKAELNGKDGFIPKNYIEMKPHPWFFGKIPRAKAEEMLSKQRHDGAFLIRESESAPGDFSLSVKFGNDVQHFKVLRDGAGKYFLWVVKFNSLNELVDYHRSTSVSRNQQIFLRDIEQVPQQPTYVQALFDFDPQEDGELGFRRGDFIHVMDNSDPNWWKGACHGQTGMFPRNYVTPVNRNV
Chain of Hck (P08631 whole entry, looked up): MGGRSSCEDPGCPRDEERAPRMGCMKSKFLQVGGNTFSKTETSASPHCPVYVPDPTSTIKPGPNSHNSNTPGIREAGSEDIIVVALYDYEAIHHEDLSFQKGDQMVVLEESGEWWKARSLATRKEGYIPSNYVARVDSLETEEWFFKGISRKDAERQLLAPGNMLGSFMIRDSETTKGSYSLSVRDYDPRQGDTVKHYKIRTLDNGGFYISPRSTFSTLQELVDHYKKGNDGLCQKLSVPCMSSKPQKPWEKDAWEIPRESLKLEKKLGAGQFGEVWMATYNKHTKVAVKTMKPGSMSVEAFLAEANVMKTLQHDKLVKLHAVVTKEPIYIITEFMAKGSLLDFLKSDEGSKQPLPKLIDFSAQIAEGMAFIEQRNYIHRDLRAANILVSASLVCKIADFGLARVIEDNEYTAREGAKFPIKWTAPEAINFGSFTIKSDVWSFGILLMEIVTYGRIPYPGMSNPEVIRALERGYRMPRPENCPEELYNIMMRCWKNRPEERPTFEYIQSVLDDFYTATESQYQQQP
Chain of FGFR3 (P22607 whole entry, looked up, the tested form may be a part): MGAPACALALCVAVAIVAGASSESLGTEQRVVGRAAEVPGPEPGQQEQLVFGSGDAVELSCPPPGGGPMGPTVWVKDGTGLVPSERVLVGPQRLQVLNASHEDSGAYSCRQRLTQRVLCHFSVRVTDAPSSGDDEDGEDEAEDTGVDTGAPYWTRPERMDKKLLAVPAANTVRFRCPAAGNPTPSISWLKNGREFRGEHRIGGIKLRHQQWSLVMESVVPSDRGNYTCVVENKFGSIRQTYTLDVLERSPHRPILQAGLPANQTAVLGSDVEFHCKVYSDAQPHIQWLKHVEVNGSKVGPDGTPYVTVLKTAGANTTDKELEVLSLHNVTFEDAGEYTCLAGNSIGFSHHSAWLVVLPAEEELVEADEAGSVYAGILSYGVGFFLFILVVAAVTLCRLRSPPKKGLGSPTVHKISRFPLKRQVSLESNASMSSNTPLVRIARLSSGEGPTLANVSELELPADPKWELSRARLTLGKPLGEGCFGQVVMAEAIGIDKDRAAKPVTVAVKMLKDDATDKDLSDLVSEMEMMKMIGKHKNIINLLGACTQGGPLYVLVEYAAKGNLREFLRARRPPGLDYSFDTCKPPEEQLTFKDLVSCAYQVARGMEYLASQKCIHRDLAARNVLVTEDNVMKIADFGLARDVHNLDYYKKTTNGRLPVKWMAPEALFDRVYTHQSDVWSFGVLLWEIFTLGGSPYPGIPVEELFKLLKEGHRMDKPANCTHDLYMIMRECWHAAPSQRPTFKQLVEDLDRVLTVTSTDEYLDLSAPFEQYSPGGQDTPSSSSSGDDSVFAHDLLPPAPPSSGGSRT
Chain of FGFR1 (P11362 whole entry, looked up): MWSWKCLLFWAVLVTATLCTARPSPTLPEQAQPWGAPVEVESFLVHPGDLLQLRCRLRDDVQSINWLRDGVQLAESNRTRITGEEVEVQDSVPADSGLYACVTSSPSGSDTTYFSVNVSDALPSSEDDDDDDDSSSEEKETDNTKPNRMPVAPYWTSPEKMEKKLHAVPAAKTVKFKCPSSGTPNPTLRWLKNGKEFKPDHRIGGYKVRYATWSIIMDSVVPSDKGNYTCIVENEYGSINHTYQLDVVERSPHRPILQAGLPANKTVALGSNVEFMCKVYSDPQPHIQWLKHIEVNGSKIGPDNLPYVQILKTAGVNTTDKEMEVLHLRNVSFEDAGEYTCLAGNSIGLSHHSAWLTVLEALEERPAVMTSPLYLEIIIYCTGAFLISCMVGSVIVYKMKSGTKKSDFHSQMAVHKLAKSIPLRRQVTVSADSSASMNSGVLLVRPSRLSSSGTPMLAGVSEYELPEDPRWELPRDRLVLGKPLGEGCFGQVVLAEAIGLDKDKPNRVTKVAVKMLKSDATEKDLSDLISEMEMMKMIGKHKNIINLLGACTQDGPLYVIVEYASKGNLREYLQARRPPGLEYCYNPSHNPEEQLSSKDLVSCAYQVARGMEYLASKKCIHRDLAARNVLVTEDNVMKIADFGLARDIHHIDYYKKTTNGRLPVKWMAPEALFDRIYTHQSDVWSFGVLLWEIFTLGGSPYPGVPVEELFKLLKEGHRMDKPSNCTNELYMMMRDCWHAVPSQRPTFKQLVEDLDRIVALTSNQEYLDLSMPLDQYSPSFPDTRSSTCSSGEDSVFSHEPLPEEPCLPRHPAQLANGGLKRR
Chain of Fyn (P06241 whole entry, looked up): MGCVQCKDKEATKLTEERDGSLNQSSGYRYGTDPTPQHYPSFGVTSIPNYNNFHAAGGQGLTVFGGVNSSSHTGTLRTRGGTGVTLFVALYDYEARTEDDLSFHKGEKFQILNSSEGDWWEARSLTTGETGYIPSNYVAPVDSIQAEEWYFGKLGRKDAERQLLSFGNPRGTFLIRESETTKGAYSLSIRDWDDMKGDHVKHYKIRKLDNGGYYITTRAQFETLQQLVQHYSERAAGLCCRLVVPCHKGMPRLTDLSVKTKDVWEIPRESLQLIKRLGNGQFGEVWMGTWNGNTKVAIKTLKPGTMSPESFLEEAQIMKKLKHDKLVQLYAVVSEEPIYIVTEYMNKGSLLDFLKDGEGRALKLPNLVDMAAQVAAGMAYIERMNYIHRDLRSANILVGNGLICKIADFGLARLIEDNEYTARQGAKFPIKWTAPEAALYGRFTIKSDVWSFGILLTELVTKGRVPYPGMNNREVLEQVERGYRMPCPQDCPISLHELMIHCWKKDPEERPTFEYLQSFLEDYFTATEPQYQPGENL
Chain of Fes (P07332 whole entry, looked up): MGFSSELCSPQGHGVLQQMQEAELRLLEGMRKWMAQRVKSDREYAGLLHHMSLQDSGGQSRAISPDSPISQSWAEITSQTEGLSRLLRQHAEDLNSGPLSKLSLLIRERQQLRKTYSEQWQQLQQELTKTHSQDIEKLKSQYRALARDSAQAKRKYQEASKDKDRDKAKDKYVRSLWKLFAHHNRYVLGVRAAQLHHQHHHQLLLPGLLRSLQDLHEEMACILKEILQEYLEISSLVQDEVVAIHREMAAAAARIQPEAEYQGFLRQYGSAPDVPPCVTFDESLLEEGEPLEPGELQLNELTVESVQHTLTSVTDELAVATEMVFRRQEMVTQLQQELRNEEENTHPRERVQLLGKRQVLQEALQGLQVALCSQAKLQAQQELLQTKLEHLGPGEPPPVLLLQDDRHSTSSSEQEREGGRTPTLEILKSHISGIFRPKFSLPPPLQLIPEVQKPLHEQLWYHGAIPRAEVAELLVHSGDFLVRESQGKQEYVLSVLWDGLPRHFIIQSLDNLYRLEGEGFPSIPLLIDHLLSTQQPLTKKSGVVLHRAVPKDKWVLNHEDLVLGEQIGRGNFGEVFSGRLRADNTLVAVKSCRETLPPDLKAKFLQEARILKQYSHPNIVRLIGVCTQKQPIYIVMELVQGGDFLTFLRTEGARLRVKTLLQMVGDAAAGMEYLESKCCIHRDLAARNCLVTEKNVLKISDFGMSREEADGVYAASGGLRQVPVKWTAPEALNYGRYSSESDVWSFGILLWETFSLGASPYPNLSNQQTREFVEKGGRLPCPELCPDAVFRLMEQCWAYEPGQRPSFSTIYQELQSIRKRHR
Chain of Jak2 (O60674 whole entry, looked up): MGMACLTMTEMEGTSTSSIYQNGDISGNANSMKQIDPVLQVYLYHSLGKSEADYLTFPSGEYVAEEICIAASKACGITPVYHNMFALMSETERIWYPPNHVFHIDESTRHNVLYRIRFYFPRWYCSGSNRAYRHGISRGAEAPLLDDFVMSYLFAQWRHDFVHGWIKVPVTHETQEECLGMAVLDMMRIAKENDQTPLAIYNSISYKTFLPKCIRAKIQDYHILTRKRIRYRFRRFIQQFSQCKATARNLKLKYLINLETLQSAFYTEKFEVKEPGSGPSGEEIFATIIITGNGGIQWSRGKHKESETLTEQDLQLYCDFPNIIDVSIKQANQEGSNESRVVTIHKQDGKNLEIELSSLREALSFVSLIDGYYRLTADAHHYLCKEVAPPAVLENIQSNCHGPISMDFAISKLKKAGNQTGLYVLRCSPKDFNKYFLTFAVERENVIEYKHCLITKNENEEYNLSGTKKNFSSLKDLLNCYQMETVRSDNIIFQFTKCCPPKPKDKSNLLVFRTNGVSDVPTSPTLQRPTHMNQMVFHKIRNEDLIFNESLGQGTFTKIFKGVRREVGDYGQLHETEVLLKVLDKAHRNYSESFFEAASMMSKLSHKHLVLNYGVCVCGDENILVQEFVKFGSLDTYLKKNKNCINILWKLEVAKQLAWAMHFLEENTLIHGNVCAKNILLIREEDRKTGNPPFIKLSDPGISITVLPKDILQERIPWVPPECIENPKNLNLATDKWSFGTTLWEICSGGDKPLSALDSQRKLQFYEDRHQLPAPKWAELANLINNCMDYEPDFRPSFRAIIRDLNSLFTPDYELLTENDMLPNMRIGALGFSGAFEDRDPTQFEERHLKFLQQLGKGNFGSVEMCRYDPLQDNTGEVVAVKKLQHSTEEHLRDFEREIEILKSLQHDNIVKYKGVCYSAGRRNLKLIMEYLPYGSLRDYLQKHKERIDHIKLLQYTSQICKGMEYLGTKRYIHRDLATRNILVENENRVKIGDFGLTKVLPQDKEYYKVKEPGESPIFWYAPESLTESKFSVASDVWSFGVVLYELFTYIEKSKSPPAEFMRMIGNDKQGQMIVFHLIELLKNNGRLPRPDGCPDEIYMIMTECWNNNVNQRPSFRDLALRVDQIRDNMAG

Sequence | SH2 binding enrichment (c-Src SH2) | SH2 binding enrichment (SHP2-C SH2) | SH2 binding enrichment (Grb2 SH2) | phosphorylation enrichment (c-Abl (mouse)) | phosphorylation enrichment (MERTK) | phosphorylation enrichment (c-Src) | phosphorylation enrichment (FGFR1) | phosphorylation enrichment (Fyn) | phosphorylation enrichment (Fes) | phosphorylation enrichment (Jak2) | phosphorylation enrichment (Fer (mouse)) | phosphorylation enrichment (EPHB2) | phosphorylation enrichment (EPHB1) | phosphorylation enrichment (Hck) | phosphorylation enrichment (AncSZ) | phosphorylation enrichment (FGFR3)
PTKNDYWAMPA [WWOX_Y287_L291P] | 0.586 | 0.669 | 0.732 | 1.39 | 5.26 | 0.952 | 20.6 | 0.987 | 1.03 | 2.69 | 0.469 | 14.4 | 18.6 | 1.82 | 2.02 | 16.3
DSMQSYDLDYP [UNC13B_Y243] | 0.733 | 0.456 | 0.915 | 0.496 | 0.405 | 0.474 | 0.665 | 0.466 | 0.946 | 1.45 | 0.451 | 0.552 | 0.4 | 0.474 | 1.3 | 0.673
EWKQNYEESQS [MYH7_Y1460_K1459N] | 0.561 | 0.666 | 0.829 | 0.967 | 0.497 | 0.461 | 0.546 | 0.481 | 1.25 | 1.32 | 0.792 | 0.664 | 0.542 | 0.605 | 1.16 | 0.692
KNSSIYVVANI [VNN1_Y134_N131S] | 0.646 | 0.942 | 0.988 | 1.07 | 0.751 | 0.691 | 0.528 | 0.567 | 1.38 | 1.31 | 0.622 | 0.64 | 0.681 | 0.662 | 1.23 | 0.873
NFSKMYCNPDA [KNL1_Y489_A486S_YF] | 2.54 | 0.619 | 0.751 | 0.699 | 0.524 | 0.426 | 0.46 | 0.486 | 0.924 | 0.894 | 0.563 | 0.613 | 0.562 | 0.488 | 0.94 | 0.802
PDGVEYLKNDP [GRIN3A_Y831] | 0.578 | 0.479 | 0.929 | 0.709 | 0.389 | 0.496 | 0.537 | 0.851 | 1.36 | 0.929 | 0.75 | 0.524 | 0.693 | 1 | 1.54 | 0.771
LHQSTYQRYDV [SLC7A14_Y693] | 1.16 | 0.694 | 0.772 | 0.444 | 0.364 | 1.11 | 0.236 | 0.458 | 0.404 | 0.545 | 0.392 | 0.53 | 0.293 | 0.505 | 0.341 | 0.426
PNRILYGDFRQ [MYH6_Y717] | 0.568 | 0.878 | 0.918 | 0.658 | 0.622 | 5.52 | 0.501 | 6.85 | 1.02 | 0.862 | 0.5 | 0.731 | 0.538 | 4.43 | 0.823 | 0.688
REVPVYTFSEP [FAM120B_Y368_D370Y_YF] | 0.496 | 0.8 | 1.16 | 1.72 | 3.58 | 9.04 | 1.14 | 11.5 | 1.54 | 1.1 | 11.1 | 1.06 | 1.9 | 4.36 | 1.83 | 1.33
RSAGKYDVYLI [MECP2_Y120] | 0.579 | 0.539 | 0.651 | 0.587 | 0.412 | 1.8 | 0.433 | 1.31 | 1.06 | 0.987 | 0.555 | 0.77 | 0.525 | 0.878 | 0.885 | 0.717
YEEDSYSHIMA [FDPS_Y388] | 2.41 | 0.564 | 0.733 | 0.663 | 0.561 | 0.813 | 1.35 | 0.64 | 1.26 | 1.06 | 1.48 | 0.714 | 0.67 | 0.976 | 1.85 | 1.18
VVDVTYDDVPI [FLNB_Y1308_E1305D] | 0.518 | 0.866 | 0.822 | 0.801 | 0.511 | 1.05 | 0.506 | 1.04 | 1.27 | 0.951 | 3.96 | 1.23 | 2.21 | 1.3 | 1.38 | 0.697
KPGLIYNKVNP [SPRED3_Y72_V71I] | 0.895 | 1.44 | 1.12 | 0.857 | 1.07 | 0.975 | 0.373 | 0.738 | 1 | 0.722 | 0.803 | 0.408 | 0.485 | 2.25 | 0.703 | 0.429
LYYYSYLLKNH [PTEN_Y180_V175L] | 0.666 | 1.23 | 1.05 | 1.97 | 4.98 | 1.06 | 4.27 | 0.946 | 1.3 | 2.46 | 0.959 | 1.65 | 3.44 | 1.49 | 1.64 | 3.79
PGPQSYPIVTG [PAX5_Y299] | 0.646 | 0.861 | 1 | 0.5 | 0.586 | 0.4 | 0.504 | 0.68 | 0.736 | 0.533 | 0.744 | 0.538 | 0.484 | 0.565 | 0.611 | 0.685
PINLFYLMDLS [ITGB2_Y131_D128N_YF] | 0.489 | 0.781 | 0.772 | 2.11 | 0.763 | 1.11 | 0.772 | 0.653 | 1.98 | 1.92 | 0.695 | 0.886 | 0.752 | 0.718 | 1.46 | 1.11
LNPDGYKKAYE [CPXM2_Y427_E428K] | 0.444 | 0.613 | 0.744 | 1.35 | 0.734 | 0.513 | 0.86 | 0.676 | 1.14 | 1 | 0.619 | 0.749 | 0.605 | 0.515 | 0.905 | 1.46
VDSNPYSRLMA [UBA5_Y53] | 1.57 | 3.31 | 0.699 | 0.469 | 0.524 | 1.16 | 0.468 | 0.756 | 0.657 | 0.47 | 1.04 | 0.488 | 0.465 | 1.72 | 0.608 | 0.533
TLKVGYTEKQR [EPHA3_Y659] | 0.486 | 0.714 | 1.08 | 0.369 | 0.322 | 0.328 | 0.404 | 0.27 | 0.378 | 0.407 | 0.386 | 0.299 | 0.259 | 0.353 | 0.417 | 0.351
GFAGKYIAMVM [CYP19A1_Y441_C437Y_YF] | 0.755 | 0.81 | 0.821 | 0.473 | 0.525 | 0.599 | 0.454 | 0.453 | 0.858 | 0.594 | 0.539 | 0.823 | 0.41 | 0.556 | 0.694 | 0.49
VKANTYEKYWL [GATM_Y100_P105L] | 1.14 | 0.687 | 0.993 | 0.644 | 0.875 | 0.652 | 0.582 | 0.668 | 0.837 | 0.733 | 2.47 | 0.5 | 0.661 | 0.583 | 0.794 | 0.541
CQLENYCNGGG [INS_Y108_Y103C] | 1.17 | 0.888 | 1.29 | 0.621 | 0.503 | 0.494 | 0.573 | 0.54 | 0.89 | 0.837 | 0.49 | 0.696 | 0.681 | 0.57 | 0.925 | 0.664
NTGVYYDLYGG [PTPN11_Y63_D61V] | 2.56 | 0.644 | 0.95 | 0.715 | 7.75 | 5.31 | 13.7 | 6.07 | 1.18 | 2.33 | 2.49 | 5.04 | 6.16 | 6.5 | 1.88 | 10.8
TLKDVYDDGKY [RPS6KA3_Y483] | 0.528 | 0.737 | 0.85 | 0.758 | 0.557 | 0.62 | 0.557 | 0.58 | 1.12 | 0.909 | 0.506 | 0.497 | 0.51 | 0.706 | 1.02 | 0.64
LNPVVYTLRNA [OR4C12_Y285] | 0.629 | 1.37 | 0.77 | 1.2 | 0.971 | 1.92 | 0.593 | 0.635 | 1.09 | 1.5 | 0.856 | 0.636 | 0.761 | 1.27 | 1.26 | 0.69
VEDHFYEGGIG [TKT_Y564_YF] | 4.29 | 0.554 | 0.592 | 0.893 | 0.575 | 0.594 | 0.58 | 0.684 | 1.12 | 1.13 | 0.704 | 0.543 | 0.63 | 0.538 | 1.24 | 0.875
ILTYKYLQKPM [KIT_Y547] | 0.428 | 0.362 | 0.729 | 0.654 | 0.487 | 0.521 | 0.396 | 0.41 | 1.15 | 0.801 | 0.495 | 0.591 | 0.686 | 0.458 | 0.666 | 0.518
TVQVAYYTMMM [SPATA17_Y83] | 1.25 | 0.852 | 0.782 | 1.36 | 9.05 | 4.49 | 10.8 | 2 | 1.85 | 4.2 | 3.74 | 1.76 | 3.4 | 2.19 | 1.91 | 9.18
LSDGPYSNPYE [EPOR_Y485] | 5.44 | 0.703 | 1.39 | 3.22 |  | 3.36 |  |  |  | 3.98 |  |  |  |  |  | 

Source: the supplement of paper PMC10065799, “High-throughput profiling of sequence recognition by tyrosine kinases and SH2 domains using bacterial peptide display” (eLife, 2023)
